In one data set the target is FANCA;FANCG (human;human, UniProt O15360;O15287 1-1455;1-622, |). Description: EMSA; 10 nM each; higher affinity than FANCA alone; EMSA: 125 mM Tris pH 7.5, 5 mM EDTA, 6% glycerol, 1 mM DTT, 100 mM NaCl, 1 nM substrate, RT 45 min; 4% native PAGE in 1x TAE. Particulars: protein: recombinant;recombinant; tags: none (native FANCA);N-terminal 6xHis; copies: 1;1; label: 32P 5' (T4 PNK); single strand. On the technique in general: In EMSA bound probe runs differently from free probe, usually more slowly.

In data set [1] the target is T1, FANCA;FAAP20 (human;human, UniProt O15360;Q6NZ36 1-1455;1-180, |). The data set is described as follows: EMSA; FANCA 10 nM, FAAP20 9-24 nM; FAAP20 increases FANCA affinity; EMSA: 125 mM Tris pH 7.5, 5 mM EDTA, 6% glycerol, 1 mM DTT, 100 mM NaCl, 1 nM substrate, RT 45 min; 4% native PAGE in 1x TAE. The conditions noted are these: protein: recombinant;recombinant; tags: none (native FANCA);C-terminal 6xHis; copies: 1;1; label: 32P 5' (T4 PNK); single strand.

The next data set concerns the target T2, FAAP20 (human, UniProt Q6NZ36 1-180).
T2 sequence: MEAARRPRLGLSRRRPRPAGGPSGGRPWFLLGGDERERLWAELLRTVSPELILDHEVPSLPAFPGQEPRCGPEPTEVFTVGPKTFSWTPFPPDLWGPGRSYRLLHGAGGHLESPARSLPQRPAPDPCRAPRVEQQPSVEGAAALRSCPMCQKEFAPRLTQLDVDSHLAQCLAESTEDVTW
Description: EMSA; FAAP20 9-24 nM; EMSA: 125 mM Tris pH 7.5, 5 mM EDTA, 6% glycerol, 1 mM DTT, 100 mM NaCl, 1 nM substrate, RT 45 min; 4% native PAGE in 1x TAE. The conditions noted are these: protein: recombinant; tags: C-terminal 6xHis; label: 32P 5' (T4 PNK); single strand.

The next data set addresses FANCA;FAAP20;FANCG (human;human;human, UniProt O15360;Q6NZ36;O15287 1-1455;1-180;1-622, ||). Description: EMSA; 10 nM each; slightly additive over FANCA+FANCG or FANCA+FAAP20; EMSA: 125 mM Tris pH 7.5, 5 mM EDTA, 6% glycerol, 1 mM DTT, 100 mM NaCl, 1 nM substrate, RT 45 min; 4% native PAGE in 1x TAE. The conditions noted are these: protein: recombinant;recombinant;recombinant; tags: none (native FANCA);C-terminal 6xHis;N-terminal 6xHis; label: 32P 5' (T4 PNK); single strand.

Data set [2] concerns the target T1, FANCA;FAAP20. The data set is described as follows: EMSA; FANCA 10 nM, FAAP20 9-24 nM; binding stimulated; EMSA: 125 mM Tris pH 7.5, 5 mM EDTA, 6% glycerol, 1 mM DTT, 100 mM NaCl, 1 nM substrate, RT 45 min; 4% native PAGE in 1x TAE. Particulars: protein: recombinant;recombinant; tags: none (native FANCA);C-terminal 6xHis; copies: 1;1; label: 32P 5' (T4 PNK); fork, 25 bp duplex; unpaired 3' arm 30 nt (strand 1) and 5' arm 25 nt (strand 2); 1 nt 3' overhang on strand 2 as printed.

The target in data set [3] is T1, FANCA;FAAP20. The data set is described as follows: EMSA; fixed suboptimal FANCA, FAAP20 titrated; binding stimulated; EMSA: 125 mM Tris pH 7.5, 5 mM EDTA, 6% glycerol, 1 mM DTT, 100 mM NaCl, 1 nM substrate, RT 45 min; 4% native PAGE in 1x TAE. Particulars: protein: recombinant;recombinant; tags: none (native FANCA);C-terminal 6xHis; copies: 1;1; label: 32P 5' (T4 PNK); single strand.

T1 sequence (O15360 whole entry, one chain of several): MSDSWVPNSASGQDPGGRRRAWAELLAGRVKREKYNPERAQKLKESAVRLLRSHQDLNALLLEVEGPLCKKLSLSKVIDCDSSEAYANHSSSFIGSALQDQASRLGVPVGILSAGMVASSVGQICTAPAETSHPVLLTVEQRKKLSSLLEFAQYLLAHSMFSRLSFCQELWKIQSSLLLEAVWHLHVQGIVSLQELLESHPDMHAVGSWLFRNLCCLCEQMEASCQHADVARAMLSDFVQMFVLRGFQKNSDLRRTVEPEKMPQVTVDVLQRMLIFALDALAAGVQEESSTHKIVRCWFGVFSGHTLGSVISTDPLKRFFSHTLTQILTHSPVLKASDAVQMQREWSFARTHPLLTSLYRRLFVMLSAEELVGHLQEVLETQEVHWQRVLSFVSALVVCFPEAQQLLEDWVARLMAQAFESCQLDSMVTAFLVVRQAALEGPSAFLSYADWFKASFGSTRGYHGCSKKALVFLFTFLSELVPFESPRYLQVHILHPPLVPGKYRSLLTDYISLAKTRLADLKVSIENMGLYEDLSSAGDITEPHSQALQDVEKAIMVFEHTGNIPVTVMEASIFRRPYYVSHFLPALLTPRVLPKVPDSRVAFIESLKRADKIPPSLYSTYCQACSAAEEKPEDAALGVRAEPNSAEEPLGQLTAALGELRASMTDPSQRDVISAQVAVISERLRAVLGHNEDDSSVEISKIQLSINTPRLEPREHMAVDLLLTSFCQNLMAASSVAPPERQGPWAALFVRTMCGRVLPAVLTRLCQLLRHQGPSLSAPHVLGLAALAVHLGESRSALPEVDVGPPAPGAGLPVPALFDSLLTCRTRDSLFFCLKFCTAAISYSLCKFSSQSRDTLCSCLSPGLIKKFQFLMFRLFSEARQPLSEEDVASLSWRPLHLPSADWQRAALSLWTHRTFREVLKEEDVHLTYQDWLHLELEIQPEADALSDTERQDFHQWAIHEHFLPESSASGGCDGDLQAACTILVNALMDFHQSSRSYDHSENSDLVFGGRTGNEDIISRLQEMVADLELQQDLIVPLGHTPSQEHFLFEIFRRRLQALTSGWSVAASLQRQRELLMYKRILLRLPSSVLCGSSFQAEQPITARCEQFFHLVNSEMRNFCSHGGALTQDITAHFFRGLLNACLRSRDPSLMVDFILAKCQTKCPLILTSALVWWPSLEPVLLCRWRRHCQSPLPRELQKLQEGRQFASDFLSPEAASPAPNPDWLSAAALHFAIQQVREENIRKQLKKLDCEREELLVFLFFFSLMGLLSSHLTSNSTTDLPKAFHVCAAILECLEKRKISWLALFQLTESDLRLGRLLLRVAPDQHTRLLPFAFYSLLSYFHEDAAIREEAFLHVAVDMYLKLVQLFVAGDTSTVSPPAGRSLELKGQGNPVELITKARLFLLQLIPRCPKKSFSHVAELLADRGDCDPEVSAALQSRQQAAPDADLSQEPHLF
Chain of FANCA;FANCG (O15360 whole entry, chain 1 of 2): as the sequence (O15360 whole entry, one chain of several) above
Chain of FANCA;FANCG (O15287 whole entry, chain 2 of 2): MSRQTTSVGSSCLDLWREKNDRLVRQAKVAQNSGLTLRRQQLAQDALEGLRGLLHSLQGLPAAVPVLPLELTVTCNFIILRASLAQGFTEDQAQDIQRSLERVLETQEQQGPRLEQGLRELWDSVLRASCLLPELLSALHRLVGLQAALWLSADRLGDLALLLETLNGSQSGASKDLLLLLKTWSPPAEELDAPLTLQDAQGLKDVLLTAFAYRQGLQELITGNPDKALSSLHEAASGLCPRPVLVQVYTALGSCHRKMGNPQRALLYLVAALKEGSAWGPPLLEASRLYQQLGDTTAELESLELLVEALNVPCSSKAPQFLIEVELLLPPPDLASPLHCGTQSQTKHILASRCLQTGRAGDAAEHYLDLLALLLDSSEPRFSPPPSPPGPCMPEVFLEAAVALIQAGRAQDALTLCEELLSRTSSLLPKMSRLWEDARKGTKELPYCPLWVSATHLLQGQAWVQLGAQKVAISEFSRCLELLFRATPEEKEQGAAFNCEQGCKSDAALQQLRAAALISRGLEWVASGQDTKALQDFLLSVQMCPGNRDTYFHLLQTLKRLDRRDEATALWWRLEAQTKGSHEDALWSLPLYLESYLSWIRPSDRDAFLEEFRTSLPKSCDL
Chain of FANCA;FAAP20;FANCG (O15360 whole entry, chain 1 of 2): as the sequence (O15360 whole entry, one chain of several) above
Chain of FANCA;FAAP20;FANCG (O15287 whole entry, chain 3 of 2): as the sequence (O15287 whole entry, chain 2 of 2) above

B1: EMSA ssDNA 61-mer (ssDNA)
DNA: GACGCTGCCGAATTCTACCAGTGCCTTGCTAGGACATCTTTGCCCACCTGCAGGTTCACCC
On to B1, for which the binding result is “binds” with FANCA;FANCG, “binds” in the data set with FANCA;FAAP20 [1], “no binding” in the data set with FAAP20 and “binds” with FANCA;FAAP20;FANCG.

B2: splayed arm DNA (mixed)
DNA 1: GTCCTCCACCGCAGCCCACCTGCCCACCTTGTTGCTGATCTCAATCAGCTCTGGA
DNA 2: GCTGGCACGGTCGGATTTAAAGTTAGGGCAGGTGGGCTGCGGTGGAGGACG
On to B2, for which the binding result with FANCA;FAAP20 [2] is “binds”.

B3: EMSA ssRNA 61-mer (ssRNA)
RNA: GACGCUGCCGAAUUCUACCAGUGCCUUGCUAGGACAUCUUUGCCCACCUGCAGGUUCACCC
Turning to B3, in the data set with FANCA;FAAP20 [3], the binding result was “binds”.

The values are drawn from article PMC10449828, “Fanconi anemia associated protein 20 (FAAP20) plays an essential role in homology-directed repair of DNA double-strand breaks”.
